Laboratory results taken from the nanobody polyreactivity screen of Harvey et al. (2022).

Assay: yeast display, Sf9 membrane polyspecificity reagent, FACS + sequencing; frameworks hold sequencing errors
Summary of the method: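 Nanobodies from a synthetic yeast display library (Saccharomyces cerevisiae BJ5465), induced 36–48 hours with galactose, were stained 1 hour at 4 °C with 10% biotinylated, detergent-solubilized Sf9 membrane reagent, enriched on streptavidin microbeads, then FACS-sorted. Anti-HA (expression) and streptavidin (reagent binding) fluorescence set low and high (top ~1%) gates. Polyreactivity labels come from the gate of origin. Genes were colony-PCR amplified, MiSeq 2 × 250 sequenced and filtered by CDR length.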

Sequence | polyreactivity (PSR sort gate)
QVQLVESGGGLVQAGGSLRLSCAASGRTFYYNTMGWYRQAPGKERELVASITSGSSTYYADSVKGRFTISRDNAKNTVYLQMNSLKPEDTAVYYCAVYRRYSVKYHYGYWGQGTQVTVSS | high polyreactivity
QVQLVESGGGLVQAGGSLRLSCAASGSTSVVNARGWSRPAPGKERELVAAISTGGASTYYADSVKGRYTISRDNAKNTVYLQMNSLKPEDTAVYYCAADLGYEYDYWGQCTQVTVSS | high polyreactivity
QVQLVESGGGLVQAGGSLRLSSAATGRTFASNAMGWYRQAPGKERELVAAIRYRGDRTSYADSVKGRFTISRDNAKNTVYLQMNSLKPEDTAVYYCAAYYNSHGLDYWGQGTQVNVSS | low polyreactivity
QVQLVESGGGLVQAGGSIRLSCAASGSTFAKNAMGWYRQAPGKERELVAAISRGGNTYYADSGKGRFTISRDNAKNTVYLQMNSLKPEDTAVYYCSKLPFTRTYLGSLYDYWGQGTQVTVSS | high polyreactivity
QVQLVESGGGLVQAGGSLRISCAASGRTFDPYAMGWYRQAPGKERELVAAITSGGSTYYADTVKGRFTISRDNAKNTVYLQMNSLTPEDTAVYYCAKPYYRLEDYWGQGTQVTVSS | low polyreactivity
QVQLVESGGGLVQAGGSLRLSCAASGSTFGYNTMGWYREAPGKERELVAAITGTGRTNYADSVKGRFTISRDNAKNTVYLQMNSLKPEDTAVYYCNARQAGTRYKYGYYGRYYWGQGTQVTVSS | high polyreactivity
QVQLVESGGGLVQAGGSLRLSCAASGRTFSRNAMGRYRQAPGKVRELVATISSSGVRTYYADSVKGRFTMSRDNAKNTVYLQMNSLKPEETAVYYWAAAWRYYSAASGYDYWGQGTLVTVSS | low polyreactivity
QVQLVESGGGLVQAGGSRRLSCAASGSIFTGYAMGWYRQSPGKERELVAAINSNGGRTYYADSVKGRFTISRDNAKNTVYLQMNSLKPEDTAVYYCAADSGRGYRYKTFNWGRFYWGQGTQVTVSS | high polyreactivity
QVQLVESGGGLVQAGGSLRLSCAASGSTFPFYAMGWYRPAPGKERELVAAITSGGSTYADSVKGRFTISRDNAKNSVYLQMNSLKPEDTAVYYCAASWPRWWRFGYWGQGTQVTVSS | low polyreactivity
QVQLVESGGGLVQAGGSLRLSCAASGRTFVFYAMGWYRQAPGKERELVAAITSSGRTKYADSVKGRFTISRDNAKNTVYLQMNSLKPEDTAVYYCAVLRWPGLDYYWGQGTQVTVSS | high polyreactivity
QVQLVESGGGLVQAGGSLRLSCAASGGTFSVYGMGWYRPAPGKERDLVAVINGTDGITYYADSVKARVTISRDNAKNTVYLQMNSLKPEDTAVYDCAKDSDFLAYHGLDHWGQGTLVTVSS | low polyreactivity
QVQLVESGGGLVQAGGSLRLSCAASGRTFRYYAMGWYRQEPGKERELVAVITSGASTYYADSVKGRFTISRDNAKNTVYLQMNCLKPEDTAVYYCNARYSWKYDSWGQGTQVTVSS | high polyreactivity
QVQLVESGGGLVQAGGSLLLSCAASGRIFDVYALGWYRQAPGTEREWVAAITWRVGSTYYADSVKGRFTISRDTAKNTVYLQMNSLKPEDTAVYYCAVDSFLVYSAVRPYDYWGQGTQVTVSS | low polyreactivity
QVQLVESGGGLVQAGGSLRLSCAASGFIFVNYAMGWYRQAPGKERELVAAISRNGGRTYYADSVKGRFTISRDNAKNTVYCQMNSLTPEDTAVYYCTAELSGKRDYWGQGTQVTVSS | high polyreactivity
QVQLVESGGGLVQAGGSLRLSCATSGFTLLKNAMGWYRQAPGKERELVAAIRQRGTTTYYADSVKGRFTISRDNAKNTVYLQMNSLKPEDTAVYSCNAGRRTGRYGYWGQGTQVTVSS | high polyreactivity
QVQLVESGGGLVQAGGSLRLRCAASGRTFYPYAMGWYRQAPGKERELVAAINWSGTSTYYADSVKGRFTISRDNAKNTVYLQMNSLKPEDTAVYYCAAKQYPVLHYSLTEADMDYWGQGTQVTVSS | low polyreactivity
QVQLVESGGVLLQAGASLRLSCAASGSIIRSYAMGWYRQAPGKERELVASISRRGGSTYYADSVKGRFTISRDNPKNSVFLQMNSLNPVDTADYYCGAVTTSKFNFWGQGTQVTVSS | low polyreactivity
QVQLVESGGGLVQPGGSLRLSCAASGSIFTRNAMGWYRQAPGKERELVAAITKRGGSTYYADSVKGRFTISRDNAKNTVYLQMNSLKPEETAVYSCAADVYKYKHTQEYHVGRMDYWGQGTQVTVSS | low polyreactivity
QVQLVESGGGLVQAGGSLRLSCAASGNTFLWYAMGWYRQAPGKERELGAAISRGGGSTYYADSVKGRFTISRDNAKNTVYLQMNSLKPEDTAVYYCAARTYYSARSIHYREFEYWGQGTQVTVSS | high polyreactivity
QVQLVESGGGLVQAGGSLRLSCAASGRTFHGYALGWYRQAPGKERELVARINWSDGRTYYADSVKGRFTISRDNAKNTVYLQMNSLKPEDTAVYYCAADKTVSYAPAWYYYWGQGTQVTVSS | low polyreactivity
QVQLVESGGGLVQAGGRLRLSCAASGSIFRVYAMGWYRQAPGKERELVARISRGGRTNYADSVKGRFTISRDNAKNTVYLQMNSLKPEDTAVYYCAADVVSLESYSYQSLGYDYWGQGTQVTVSS | high polyreactivity
QVQLVESGGGLVQAGGSLRLSCAASGSTFRYNAMGWYRQAPGKERELFAAISFSGGSTYYADSVKGRFTISRDNAKNTVYLQMNSLKPEDTAVYYCAARWSSWPSYLAVPRLYYWGQGTQVTVSS | high polyreactivity

Sequence | polyreactivity (PSR sort gate)
QVQLVESGGGLVQAGGSLRLSCAASGTFYRNAMGWYRQAPGKERELVAAISSGSNTDYADSVKGRFTISRDNAKNTVYVQMNSLKPEDTALYYCNADRGDLYDLRGSGYLDGYWGQGTQVTVSS | low polyreactivity
QVQLGESGGGLVQAGGSLRLSCAASGRIFVYNAMGWYRQAPGKERQLVAAIRNDGSTNYADSVKGRFTISRDNAKNTVYFQMNSLKPEDTAVYYCAKSVTGWRGLWYTPRNYYWGQGTQVTVSS | high polyreactivity
QVQLVESGGGLVQAGGSLRLSCAACGFIFSSNAMGWYTPAPGNERELVAAITGGGGRTRYADSVKGRFTISRDNAKNSVYLQMNSLKPEDTAVYYCNTVYYVYYRSYSYKGDYWGQGTQVTVSS | high polyreactivity
QVQLVESGGGLVQAGGSLRLSCAASGFTFYVNAMGWYRQAPGKERELVAAISSRGGSTYYADSVKGRFTISRDNAKNTVYLQMNSLKPEDTAVYYCATAKSYGEDSWGQGTQVTVSS | high polyreactivity
QVQLVESGGGLVQAGGSLRLSCAASGLTLDPYAMGWSRQAPGKERELVAAISWSGGGTTYADSVKGRFTISRDNAMNTVYLQMNSLKPEDTAVYYCAAAAPHLSAKMDYWGQGTQVTVSS | low polyreactivity
QVQLVESGGGLVQEGGSLRLSCAASGYIFYEYAMGWYRQAPGKERELVAAISYSGGSTYYADSVKGRFTISRDNAKNTVYLQMNSLKPEDTAVYYCAAVGSVRYREGYDYWGQGSQVTVSS | high polyreactivity
QVQLVESGGGLVQAGGSLRLSCAASGNTFVYNDMGWYRQAPGKERELVADIRYSGSTYYADSVKGRFTISRDNAKNTVYLQMNSLKPEDTAVYYCAVDSYYFLKDPISYGLYYYWGQGSQVTVSS | low polyreactivity
QVQLVESGGGLVQAGGSLRVSCAPSGRTFRYNTMGWYRPAPGKERELVARITWSGGSTYYADSVKGRFTISRDNAKNTVYLQMNSLKPEDTAVSYCAAGSGWRFDYWGQGTQVTVSS | low polyreactivity
QVQLVESGGGLVQAGGSLRLTCAASGFIFNHNAMGWYRQAPGKERELVAAISSGGRTYYADSVKGRFTISRDNAKNTVYLQMNSLKPEDTAVYYCAKDTKYSSQYGKYGYWGQGTQVTVSS | low polyreactivity
QVQLVESGGGLVQAGGSLRLICAASGFTFASYGMGWYRQARGKERELVAAISWSGGRTYYADSVKGRFTISRDNATNTVYLQMNSLKPEDSAVYYSNAYWNPASKYDYWGQGTQVTVSS | high polyreactivity
QVQLVESGGGLVQAGGSLRLSCAASGRIFYGYAMGWYRQAPGKERELVAAISWRGGRTYYADSVKGRFTISRDNAKNTVYLQMNSLKPEDTAVYYCAVRWPSARIPVKLDYWGQGTQVTVSS | high polyreactivity
QVQLVESGGGLVQAGGSLRLSCAASGSTFRRYAMGWYRQAPGKERELVAAISWSGGSTYYADSVKGRFTISRDNAKNTVYLQMNSLKPEDTAVYYCAARGVTSYWQDYDYWGQGTQVTVSS | low polyreactivity
QVQLVESGGGLVQAGGSLRLSCAASGSTFTDYAMGWYRQAPGKERELVAAIDSGGITNYADSVKGRFTISRDNAKNTVYLQMNSLKPEDTAVYYCAVEGEYLTPSGRYRLDYWGQGTQVTVSS | low polyreactivity
QVQLVESGGGLVQAGGSLRLSCAASGSIFDQYTMGWSRQAPGKERELVAAIRFSGGSTSYADSVKGRFTISRDNAKNTVYLQMNSLIPEDTAVYYCNVDAITWWDWEDFDYWGQGTQVTVSS | low polyreactivity
QVQLVESGGGLVQAGGSLRLSCAASGRTIRYYSMGWYRQAPGKESELVAAINYSGGRTYYADSVKGRFTISRDNSMNTVYLQLNSLKPEDTAVYYCNAVLGPYFPKFDYWGQGTQVTVSS | high polyreactivity
QVQLVESGGGLVQAGGSLRLSCAASGSTFRRYAMGWYRQAPGKERELVAAITTNGGSTYYADSVKGRFTISRDNAKNTVYLQMNSLKPEDTAVYYCNARWPYRQRGYDYWGQGTQVTVSS | high polyreactivity
QVQLVESGGGLVQAGGSLRLSCAASGSIFVKNAMGWYRQAPGKEREFVAAITTSGGSTNYADSVKGRFTISLDNAKNTVYLQMNSLKPEDTAVYYCNTDIFPAAYDYWGQGTQVTVSS | low polyreactivity
QVQLVESGGGLVQAGGSLRLSCAASGSNFVIYAMGWYRQAPGKERELVAAIRFSTGSTYYADSVKVRFTNSRDYAKNTVYLQMNSLKPEDTAVYYCAAATWQWPWYDYWGQGTQVTVSS | high polyreactivity
QVQLVESGGGLVQAGGSLRLSCAASGFIFRYYAMGWYRQAPGKERELVAAISYSGGSTYYADSVKGRFTISRDTAKNTVYLQMNSLKPEDTAVYYCAAVLRTRDHPQPNYVYWGQGTQVTVSS | high polyreactivity
QVQLVESGGGLVQAGGSLRLSCAASGRIFEYIAMGWYRQAPGKERELVAAITSDGSTNDADSVKGRFTISRDNAKNTVYLQMNSLNPEDTAVYYCNTRYSLYTKYAYYDEHDYWGQGTQVTVSS | low polyreactivity
QVQLVESGRGLVQAGGSLRLSCAASGSIFYDNAMGWYRQAPGKDRELVAAISYSGDSTYYADSVKGRFTISHDNAKNTVYLQMNSLKPEDTAVYYCAADYYGIYYSGTSEYWGQGTQVTVSS | low polyreactivity
